Among the data in PMC6872814, “Functional interactions between nitrite reductase and nitric oxide reductase from Paracoccus denitrificans” (Scientific Reports, 2019) are Kd values, retold here.

Data set [1] concerns the molecule itself. Nature of the data set: fluorescence correlation spectroscopy (photon count-rate per molecule, CPM); increasing concentrations of cd1NiR-STAR 635 alone; CPM fitted with the ligand-binding model (Eq. 2); apparent; monomer to dimer; points above 15 nM not in the fit.
Data set [2] deals with the molecule itself. Kind of data set: fluorescence correlation spectroscopy (photon count-rate per molecule, CPM); increasing concentrations of cd1NiR-STAR 635 with 40 nM unlabelled cNOR in the solution; CPM fitted with the ligand-binding model (Eq. 2); apparent; monomer to dimer.

B1: cytochrome cd1 nitrite reductase (cd1NiR) from Paracoccus pantotrophus, labelled with Abberior STAR 635 (enzyme, UniProt P72181 30-596, looked up)
chain: QEQVAPPKDPAAALEDHKTRTDNRYEPSLDNLAQQDVAAPGAPEGVSALSDAQYNEANKIYFERCAGCHGVLRKGATGKALTPDLTRDLGFDYLQSFITYGSPAGMPNWGTSGELSAEQVDLMANYLLLDPAAPPEFGMKEMRESWKVHVAPEDRPTQQENDWDLENLFSVTLRDAGQIALIDGATYEIKSVLDTGYAVHISRLSASGRYLFVIGRDGKVNMIDLWMKEPTTVAEIKIGSEARSIETSKMEGWEDKYAIAGAYWPPQYVIMDGETLEPKKIQSTRGMTYDEQEYHPEPRVAAILASHYRPEFIVNVKETGKILLVDYTDLDNLKTTEISAERFLHDGGLDGSHRYFITAANARNKLVVIDTKEGKLVAIEDTGGQTPHPGRGANFVHPTFGPVWATSHMGDDSVALIGTDPEGHPDNAWKILDSFPALGGGSLFIKTHPNSQYLYVDATLNPEAEISGSVAVFDIKAMTGDGSDPEFKTLPIAEWAGITEGQPRVVQGEFNKDGTEVWFSVWNGKDQESALVVVDDKTLELKHVIKDERLVTPTGKFNVYNTMTDTY
modifications: Abberior STAR 635 (amino-reactive dye, 5-fold molar excess; sites not stated); heme c and heme d1
notes: cytochrome cd1 nitrite reductase (cd1NiR), Paracoccus pantotrophus (G6), soluble periplasmic protein; 97% identical to the P. denitrificans enzyme; STAR 635-labelled in the fluorescence experiments; the activity assays (functional rows) used the same protein unlabelled; Written as the monomer chain; also called cd1NiR-STAR 635; cd1NIR-STAR 635
B1: the Kd worked out at 3.5 ± 0.1 nM in data set [1] and 5.3 ± 0.2 nM in data set [2].
